Experimental data from article PMC10293748.

Molecular target: SARS-CoV-2 RBDWT, His-tagged, soluble (SARS-CoV-2) (UniProt P0DTC2)
Experiment: ELISA

In the case of “soluble ACE2 (sACE2), commercially available, His-tagged (domain or fragment)”, the IC50 is reported as 179 nM.
